Data: article PMC6336799, “Novel non-phosphorylative pathway of pentose metabolism from bacteria” (Scientific Reports, 2019)

Assays:
Assay type in all cases: biochemical, Herbaspirillum huttiense
[1] = substrate: O=C(O)C(=O)C[C@@H](O)CO; experiment: coupled spectrophotometric assay (alpha-KGSA dehydrogenase); conditions: 50 mM HEPES-NaOH pH 7.2, 1.5 mM NAD+ for coupling enzyme, 1 mM MgCl2 if necessary
[2] = substrate: O=C(O)C(=O)C[C@H](O)CO; experiment: as above; conditions: 50 mM HEPES-NaOH pH 7.2, 1.5 mM NAD+ for coupling enzyme, 1 mM MgCl2 if necessary
[3] = substrate: C[C@H](O)[C@@H](O)CC(=O)C(=O)O; experiment: spectrophotometric NADH formation; conditions: NAD+ as coenzyme, 50 mM Tris-HCl pH 9.0
[4] = substrate: O=C(O)C(=O)C[C@H](O)CO; experiment: spectrophotometric NADH formation; conditions: NAD+ as coenzyme, 50 mM Tris-HCl pH 9.0
purified protein [5] = substrate: O=C(O)[C@@H](O)[C@H](O)[C@H](O)[C@H](O)CO; experiment: purified protein; conditions: 50 mM HEPES-NaOH pH 7.2, 1.5 mM NAD+ for coupling enzyme
purified protein [6] = substrate: O=C(O)[C@@H](O)[C@H](O)[C@H](O)CO; experiment: purified protein; conditions: 50 mM HEPES-NaOH pH 7.2, 1.5 mM NAD+ for coupling enzyme

B1: C785_RS13710 (KDP dehydratase) (Herbaspirillum huttiense subsp. lycopersici) (protein)
chain: MRLIQYRDLHGQRRVGIVNGASIQVLGEVDTMRELGLLAIERHTGLERLAQLLNTDRSEDYAAILAEGRILAPLDHPDPAHCRVSGAGTTHLGSATTRDKMHRRIEGDELDKTDTQLMIEWGIAGGRPAPGTVGVQPEWFYKGDGHCIVAPGQPLPRPDFALDGGEEPEIVGLYLIDDAGCPRRLGFAIGNEFSDHVMERRNYLYQGHSKLRHCAFGPELLVGLPPAHLVGMTRIRRRGRVIWEQEFLTGPDNMCHSIENLEYHTFKYAHLLHAGDVHAHFMGAANLSFAYSVRTEDGDSIEISIPDFGAPLVNGIQHVQSNLRPGGVRQL
notes: full length, N-terminal (His)6-tag, expressed in Pseudomonas putida KT2442-oxyR1 (pUCP/C785_RS13710), Ni-NTA
Km [1]: 533 ± 160 µM | kcat [1]: 0.202 ± 0.035 s⁻¹ | Km [2]: 1910 ± 200 µM | kcat [2]: 0.18 ± 0.005 s⁻¹

B2: C785_RS13675 (D-KDP/L-KDF 4-dehydrogenase) (Herbaspirillum huttiense subsp. putei IAM 15032) (protein)
chain: MSASTGRLAGKTVLITAAAQGIGRASTELFAREGARVIATDISKTHLEELASIAGVETHLLDVTDDDAIKALVAKVGTVDVLFNCAGYVAAGNILECDDKAWDFSFNLNAKAMFHTIRAVLPGMLAKKAGSIVNIASAASSVKGVANRFAYGASKAAVVGLTKSVAADFVSQGIRCNAICPGTIESPSLNQRISTQAKETGKSEDEVRAAFVARQPMGRIGKAEEVAALALYLASDESNFTTGSIHMIDGGWSN
notes: full length, N-terminal (His)6-tag (pQE-80L), expressed in E. coli DH5alpha, Ni-NTA
Km [3]: 169 ± 3 µM | kcat [3]: 32.17 ± 0.483 s⁻¹ | Km [4]: 1120 ± 210 µM | kcat [4]: 27.17 ± 3.67 s⁻¹

B3: C785_RS13685 (D-arabinonate dehydratase) (Herbaspirillum huttiense subsp. lycopersici) (protein)
chain: MKANSPIIRLNPVDDVVIARQQLISGTVLQDEGGLKVQGLIPAGHKMATRAISAGEPVKRYGQIIGTASQDIAPGQHVHTHNLAMAEFSREHHFGADVKPVDFVAEPATFMGIVRPDGRVATRNYIGVLTSVNCSATAARAIADYFRRDIHPEVLADYPNIDGVVALTHGQGCATDSQGEPLQILRRTLAGYATHPNFAAVLVVGLGCETNQISGLMESHNLKEGEYFHTFTIQGTGGTAKTVALGIEKIKKMLPKANDIKREPVSAKHLTLGLQCGGSDGYSGITANPALGAAVDLLVRHGGTAILSETPEIYGAEHLLTRRAVSPEVGEKLLARIAWWEEYCAKNDAEMNNNPSAGNKAGGLTTILEKSLGAVAKGGTTNLVDVYKYAETVTARGFVFMDTPGYDPISATGQVAGGANMICFTTGRGSAYGCAPAPSLKLATNTALWQRQEEDMDINCGEIADSNVTPQEVGERFFQMILDTASGKKTKSELHGYGQDEFVPWHIGVYT
notes: full length, N-terminal (His)6-tag (pQE-80L), expressed in E. coli DH5alpha, Ni-NTA; iron protein stored with Fe2+ and DTT
Km (purified protein [5]): 5910 ± 90 µM | kcat (purified protein [5]): 0.0393 ± 0.0005 s⁻¹ | Km (purified protein [6]): 202 ± 3 µM | kcat (purified protein [6]): 9.03 ± 0.067 s⁻¹
